Laboratory results from patent US20070009989A1, “Synthetic heparanase molecules and uses thereof” (priority 2003, published 2007).

Assays:
[1] = Heparanase enzymatic activity of constructs transiently expressed in COS-7 cells (radiometric or fluorimetric assay); format: biochemical; conditions: for enzymatic activity: extracted by heparin affinity chromatography; for stability of the construct (conclusion from expression level): expression barely detectable by Western blot
Protocol: Cells were grown in Dulbecco's MEM (Gibco BRL, Gaithersburg, Md.). All constructs were cloned into the eukaryotic expression plasmid pcDNA3 (Invitrogen). A vector encoding the reporter gene β-lactamase (BLA) was co-transfected in order to check transfection efficiency of each construct. […] Transient transfection of COS7 cells was obtained using the fuGENE 6 Transfection Reagent (Roche, Basel, Switzerland) according to manufacturer's instructions. 24 hours after transfection, efficiency was assessed by fluorimetric detection of BLA-positive cells. 96 hours after transfection, cells were harvested and resuspended in lysis buffer (50 mM Tris-HCl pH 7.5, 150 mM NaCl, 0.5% Triton) containing Complete protease inhibitor cocktail (Roche). The lysis was carried out on ice for 30 minutes. After centrifugation at 14000 rpm for 30 minutes, the heparanase containing supernatants were recovered and partially purified as outlined below.
Heparanase constructs were expressed in COS-7 cells, which are devoid of endogenous heparanse activity, by transient transfection. Heparanase was extracted from cell lysates by heparin affinity chromatography and quantified on Western blots. In parallel, heparanase enzymatic activity was determined with either the radiometric or fluorimetric assay (FIG. 5). From Western blot analysis, we concluded that wt heparanase as well as the single chain constructs GS3 and hyaluro are efficiently expressed and processed, whereas constructs 106 and GS4 are expressed but not processed. Expression levels of constructs 109 and GS6 were extremely low and barely detectable by Western blot analysis. […] Since GS3 and hyaluro are active but are processed despite the changes that were introduced in the cleavage sites we can not draw any conclusion with respect to the intrinsic activity of the precursors. We therefore proceeded with the expression in cells that are devoid of the enzyme(s) responsible for heparanase processing.
(§1) Cell lysates from COS7 or Sf9 insect cells were passed through 500 μl Heparin Sepharose CL-6B (Amersham, Piscataway, N.J.) by gravity. The column was washed with 2 ml of lysis buffer, then with 2 ml of 50 mM Tris-HCl pH 7.5, 500 mM NaCl, and heparanase was eluted with 2 ml of 50 mM Tris-HCl pH 7.5, 1 M NaCl and concentrated about 5 fold with a Biomax-30K centrifugal concentrator (Millipore, Bedford, Mass.). 10% glycerol was added and the protein was stored in aliquots at −80° C. Protein concentration was determined using the BIO-RAD Protein Assay.
(§2) This assay is based on the degradation of FITC-HS monitored by HPLC size exclusion chromatography. 8 μl of purified heparanase was incubated with 5 μL of FITC-HS in a 50 μl of 50 mM MES pH 6, 10% glycerol (heparanase activity buffer, HAB). The reaction mixture was incubated at room temperature for a defined period and the reaction was stopped by the addition of 50 μg of heparin. The mixture was then filtered using Ultrafree-MC centrifugal filter Devices (Millipore). 20 μl were injected on a Superdex 75™ (Pharmacia Biotech) column equilibrated in buffer 50 mM Hepes pH 7.5 150 mM Na2SO4 and connected to a Merck-Hitachi HPLC system. Fluorescent heparan sulfate degradation products were detected by an L-7485 fluorescence detector. Heparanase activity was assessed by monitoring the increase in lower molecular weight heparan sulfate species compared with the intact FITC-HS and quantified by peak area integration.
This assay is based on the degradation of tritiated heparan sulfate immobilized on microplate. Each well of the Reacti-Bind Streptavidin High Binding Capacity Coated Plates was pre-treated according to manufacturer's instructions. Initially, different amounts of each fraction of tritiated, biotinylated heparan sulfate obtained after PD-10 desalting column were added to each well (in duplicate) in PBS to a final volume of 100 μl. […]

[2] = Heparanase enzymatic activity of constructs expressed in Sf9 insect cells (fluorimetric assay); format: biochemical; conditions: for pH and ionic strength dependence of the enzymatic activity: compared with wild type enzyme from COS-7 cells or HCT-116 cells; for enzymatic activity of the unprocessed purified protein: expressed in Sf9 cells, compared with correctly processed wild type enzyme from COS-7 cells
Protocol: Recombinant baculoviruses containing the heparanase constructs were generated using the Bac to Bac expression system (Invitrogen). Recombinant baculoviruses were used to infect Sf9 insect cells (50×10^6 cells per T-175 flask) grown in Grace's insect medium with 10% FBS. Cells were collected 48 h after infection, and centrifuged at 500 g for 5 minutes. Cell lysates were prepared as above, except the lysis buffer contained 500 mM NaCl instead of the 150 mM used for COS7, which improved protein quantity in the soluble fraction.
The proteins were expressed in Sf9 cells and purified by heparin affinity chromatography.
as §1, §2

B1: 106: single chain heparanase linking the 8 and 50 kDa subunits directly, protein SEQ ID NO:17 (protein)
chain: MLLRSKPALPPPLMLLLLGPLGPLSPGALPRPAQAQDVVDLDFFTQEPLHLVSPSFLSVTIDANLATDPRFLILLGSPKLRTLARGLSPAYLRFGGTKTDFLIFDPKKFKNSTYSRSSVDVLYTFANCSGLDLIFGLNALLRTADLQWNSSNAQLLLDYCSSKGYNISWELGNEPNSFLKKADIFINGSQLGEDFIQLHKLLRKSTFKNAKLYGPDVGQPRRKTAKMLKSFLKAGGEVIDSVTWHHYYLNGRTATREDFLNPDVLDIFISSVQKVFQVVESTRPGKKVWLGETSSAYGGGAPLLSDTFAAGFMWLDKLGLSARMGIEVVMRQVFFGAGNYHLVDENFDPLPDYWLSLLFKKLVGTKVLMASVQGSKRRKLRVYLHCTNTDNPRYKEGDLTLYAINLHNVTKYLRLPYPFSNKQVDKYLLRPLGPHGLLSKSVQLNGLTLKMVDDQTLPPLMEKPLRPGSSLGLPAFSYSFFVIRNAKVAACI
modifications: hep 106
[1]
  enzymatic activity: inactive

B2: GS3: single chain heparanase, subunits linked via (GS)3 glycine-serine spacer, protein SEQ ID NO:21 (protein)
chain: MLLRSKPALPPPLMLLLLGPLGPLSPGALPRPAQAQDVVDLDFFTQEPLHLVSPSFLSVTIDANLATDPRFLILLGSPKLRTLARGLSPAYLRFGGTKTDFLIFDPKKEGSGSGSKKFKNSTYSRSSVDVLYTFANCSGLDLIFGLNALLRTADLQWNSSNAQLLLDYCSSKGYNISWELGNEPNSFLKKADIFINGSQLGEDFIQLHKLLRKSTFKNAKLYGPDVGQPRRKTAKMLKSFLKAGGEVIDSVTWHHYYLNGRTATREDFLNPDVLDIFISSVQKVFQVVESTRPGKKVWLGETSSAYGGGAPLLSDTFAAGFMWLDKLGLSARMGIEVVMRQVFFGAGNYHLVDENFDPLPDYWLSLLFKKLVGTKVLMASVQGSKRRKLRVYLHCTNTDNPRYKEGDLTLYAINLHNVTKYLRLPYPFSNKQVDKYLLRPLGPHGLLSKSVQLNGLTLKMVDDQTLPPLMEKPLRPGSSLGLPAFSYSFFVIRNAKVAACI
modifications: hep GS3
[1]
  enzymatic activity: showed enzymatic activity
[2]
  pH and ionic strength dependence of the enzymatic activity: undistinguishable from the wild type recombinant enzyme
  enzymatic activity of the unprocessed purified protein: highly active

B3: GS6: single chain heparanase, subunits linked via (GS)6 spacer, protein SEQ ID NO:26 (protein)
chain: MLLRSKPALPPPLMLLLLGPLGPLSPGALPRPAQAQDVVDLDFFTQEPLHLVSPSFLSVTIDANLATDPRFLILLGSPKLRTLARGLSPAYLRFGGTKTDFLIFDPKKEGSGSGSGSGSGSKKFKNSTYSRSSVDVLYTFANCSGLDLIFGLNALLRTADLQWNSSNAQLLLDYCSSKGYNISWELGNEPNSFLKKADIFINGSQLGEDFIQLHKLLRKSTFKNAKLYGPDVGQPRRKTAKMLKSFLKAGGEVIDSVTWHHYYLNGRTATREDFLNPDVLDIFISSVQKVFQVVESTRPGKKVWLGETSSAYGGGAPLLSDTFAAGFMWLDKLGLSARMGIEVVMRQVFFGAGNYHLVDENFDPLPDYWLSLLFKKLVGTKVLMASVQGSKRRKLRVYLHCTNTDNPRYKEGDLTLYAINLHNVTKYLRLPYPFSNKQVDKYLLRPLGPHGLLSKSVQLNGLTLKMVDDQTLPPLMEKPLRPGSSLGLPAFSYSFFVIRNAKVAACI
modifications: hep GS-A6
[1]
  stability of the construct (conclusion from expression level): probably unstable

B4: 109: single chain heparanase linking the 8 and 50 kDa subunits directly, protein SEQ ID NO:20 (protein)
chain: MLLRSKPALPPPLMLLLLGPLGPLSPGALPRPAQAQDVVDLDFFTQEPLHLVSPSFLSVTIDANLATDPRFLILLGSPKLRTLARGLSPAYLRFGGTKTDFLIFDPKKEKKFKNSTYSRSSVDVLYTFANCSGLDLIFGLNALLRTADLQWNSSNAQLLLDYCSSKGYNISWELGNEPNSFLKKADIFINGSQLGEDFIQLHKLLRKSTFKNAKLYGPDVGQPRRKTAKMLKSFLKAGGEVIDSVTWHHYYLNGRTATREDFLNPDVLDIFISSVQKVFQVVESTRPGKKVWLGETSSAYGGGAPLLSDTFAAGFMWLDKLGLSARMGIEVVMRQVFFGAGNYHLVDENFDPLPDYWLSLLFKKLVGTKVLMASVQGSKRRKLRVYLHCTNTDNPRYKEGDLTLYAINLHNVTKYLRLPYPFSNKQVDKYLLRPLGPHGLLSKSVQLNGLTLKMVDDQTLPPLMEKPLRPGSSLGLPAFSYSFFVIRNAKVAACI
modifications: hep 109
[1]
  stability of the construct (conclusion from expression level): probably unstable

B5: GS4: single chain heparanase, W118-(GS)4-E143 spacer, protein SEQ ID NO:25 (protein)
chain: MLLRSKPALPPPLMLLLLGPLGPLSPGALPRPAQAQDVVDLDFFTQEPLHLVSPSFLSVTIDANLATDPRFLILLGSPKLRTLARGLSPAYLRFGGTKTDFLIFDPKKESTFEERSYWGSGAGSGAEWPYQEQLLLREHYQKKFKNSTYSRSSVDVLYTFANCSGLDLIFGLNALLRTADLQWNSSNAQLLLDYCSSKGYNISWELGNEPNSFLKKADIFINGSQLGEDFIQLHKLLRKSTFKNAKLYGPDVGQPRRKTAKMLKSFLKAGGEVIDSVTWHHYYLNGRTATREDFLNPDVLDIFISSVQKVFQVVESTRPGKKVWLGETSSAYGGGAPLLSDTFAAGFMWLDKLGLSARMGIEVVMRQVFFGAGNYHLVDENFDPLPDYWLSLLFKKLVGTKVLMASVQGSKRRKLRVYLHCTNTDNPRYKEGDLTLYAINLHNVTKYLRLPYPFSNKQVDKYLLRPLGPHGLLSKSVQLNGLTLKMVDDQTLPPLMEKPLRPGSSLGLPAFSYSFFVIRNAKVAACI
modifications: hep GS-A4
[1]
  enzymatic activity: inactive

B6: hyaluro: single chain heparanase with grafted loop region from hyaluronidase, protein SEQ ID NO:27 (protein)
chain: MLLRSKPALPPPLMLLLLGPLGPLSPGALPRPAQAQDVVDLDFFTQEPLHLVSPSFLSVTIDANLATDPRFLILLGSPKLRTLARGLSPAYLRFGGTKTDFLIFDPKKESTFEERSYWAFKDKTPEWPYQEQLLLREHYQKKFKNSTYSRSSVDVLYTFANCSGLDLIFGLNALLRTADLQWNSSNAQLLLDYCSSKGYNISWELGNEPNSFLKKADIFINGSQLGEDFIQLHKLLRKSTFKNAKLYGPDVGQPRRKTAKMLKSFLKAGGEVIDSVTWHHYYLNGRTATREDFLNPDVLDIFISSVQKVFQVVESTRPGKKVWLGETSSAYGGGAPLLSDTFAAGFMWLDKLGLSARMGIEVVMRQVFFGAGNYHLVDENFDPLPDYWLSLLFKKLVGTKVLMASVQGSKRRKLRVYLHCTNTDNPRYKEGDLTLYAINLHNVTKYLRLPYPFSNKQVDKYLLRPLGPHGLLSKSVQLNGLTLKMVDDQTLPPLMEKPLRPGSSLGLPAFSYSFFVIRNAKVAACI
modifications: hep Hya1
[1]
  enzymatic activity: showed enzymatic activity
[2]
  pH and ionic strength dependence of the enzymatic activity: undistinguishable from the wild type recombinant enzyme
  enzymatic activity of the unprocessed purified protein: highly active
